Experimental data: publication PMC13095208, “Structural mechanisms of pump assembly and drug transport in the AcrAB–TolC efflux system” (eLife, 2026)

Target: the molecule itself
Assay: cryo-EM structure

B1: AcrA, periplasmic membrane fusion protein of Escherichia coli (natural protein)
chain: CDDKQAQQGGQQMPAVGVVTVKTEPLQITTELPGRTSAYRIAEVRPQVSGIILKRNFKEGSDIEAGVSLYQIDPATYQATYDSAKGDLAKAQAAANIAQLTVNRYQKLLGTQYISKQEYDQALADAQQANAAVTAAKAAVETARINLAYTKVTSPISGRIGKSNVTEGALVQNGQATALATVQQLDPIYVDVTQSSNDFLRLKQELANGTLKQENGKAKVSLITSDGIKFPQDGTLEFSDVTVDQTTGSITLRAIFPNPDHTLLPGMFVRARLEEGLNPNAILVPQQGVTRTPRGDATVLVVGADDKVETRPIVASQAIGDKWLVTEGLKAGDRVVISGLQKVRPGVQVKAQEVTADNNQQAASGAQPEQSKS
B1 was tested. Which “stoichiometry N” value did it give?
The value was 6 protomers.
